From US20200157212A1 (Pfizer, published 2020)
Substitutions are numbered along the chain they refer to.

Tests used:
[1] = target: T1, Human ROBO2 Ig 1,2 KSR mutant (human, UniProt Q7TPD3 31-220 (mouse entry), limits assumed); experiment: Octet Red BLI, Abcs35 captured on AHC sensors, ROBO proteins in solution
T1 construct: recombinant protein; also called ROBO2-KSR mutant protein; Human ROBO2 Ig1-2 with the RSK mutated to KSR
T1 chain: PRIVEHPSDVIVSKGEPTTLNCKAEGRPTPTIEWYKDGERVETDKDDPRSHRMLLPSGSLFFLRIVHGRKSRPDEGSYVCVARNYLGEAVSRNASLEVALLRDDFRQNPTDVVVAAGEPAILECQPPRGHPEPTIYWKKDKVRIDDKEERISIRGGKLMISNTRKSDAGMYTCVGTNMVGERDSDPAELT
From the text: (§1) Octet Red AHC (Anti-Human IgG FC) Sensors were loaded with Abcs35. The loaded sensors were then exposed to Human ROBO2 Ig1-2, Rat ROBO2 Ig 1-2, Human ROBO2 Ig1-2 with the RSK mutated to KSR as in ROBO1, or ROBO1 Ig1-2 then the sensors were moved to PBS only, lacking any ROBO1 or 2 proteins. The arrows indicate curves for each of the ROBO proteins tested.
(§2) Based upon the crystal structure described above, the following experiments were done to confirm the epitope specificity of 93H2 and/or affinity matured clones Abcs35. Using Octet Red, epitope specificity was confirmed biochemically. Abcs35, at 10 μg/ml, was captured on AHC sensors for 60 seconds. Recombinant human ROBO2 Ig1-Ig2, rat […], human ROBO2 containing the ROBO1 KSR sequence (ROBO2-KSR mutant), and human ROBO1 Ig1-Ig2, prepared at 100 nM, were used to interact with captured Abcs35. Association time was 100 seconds then dissociation was followed for 20 seconds. Abcs35 specifically bound human and rat ROBO2 but not human ROBO1 or the ROBO2-KSR mutant protein (FIG. 2).

Human ROBO1 Ig1-Ig2 = target: T2, Human ROBO1 Ig1-Ig2 (human, UniProt Q9Y6N7 68-257); experiment: as above
T2 construct: recombinant protein; also called ROBO1 Ig1-2; Human ROBO1 Ig 1,2
T2 sequence: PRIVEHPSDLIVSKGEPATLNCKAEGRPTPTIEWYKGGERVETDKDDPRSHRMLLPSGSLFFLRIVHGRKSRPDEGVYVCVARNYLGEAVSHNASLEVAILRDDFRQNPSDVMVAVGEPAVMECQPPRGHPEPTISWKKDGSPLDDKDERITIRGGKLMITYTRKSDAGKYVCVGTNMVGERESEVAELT
From the text: as §1, §2

Human ROBO2 Ig1-Ig2-His = target: T3, Human ROBO2 Ig1-Ig2-His (human, UniProt Q9HCK4 31-220); experiment: SPR (Biacore T200), Abcs35 immobilized on a CM5 chip, ROBO2 Ig1-Ig2-His as analyte; column head kon(1/Ms)
T3 construct: the His tag is named only in the SPR paragraphs; the Octet and ELISA paragraphs print 'ROBO2 Ig1-Ig2' without a tag; also called ROBO2 Ig1-2; Human ROBO2 Ig 1,2
T3 sequence: T1 chain with K70R, R72K
Experimental: […] Association and dissociation were followed over time.
Based upon several criteria, Abcs25 and Abcs35 were selected for further characterization. Using flow cytometry, improvement in the binding EC₅₀ to human ROBO2 relative to the parental 93H2 was evaluated. Starting at 6.7 nM, 11-point, 3-fold dilution series were made for each antibody and used to stain HEK293 overexpressing human ROBO2 as described above for the ROBO2 fold selectivity (Example 2). […] In addition to measuring improved binding to human ROBO2, it was important to ensure that high affinity binding to both cynomolgus monkey ROBO2 and rat ROBO2 was maintained. Using HEK293 cells overexpressing either cynomolgus monkey ROBO2 or rat ROBO2, the relative dose-dependent binding of 93H2, Abcs25 and Abcs35 was evaluated as described above. High affinity binding to both cynomolgus monkey and rat ROBO2 was maintained in Abcs25 and Abcs35 (Table 4). […] Briefly, Abcs35 was immobilized to 300 resonance units (RU) on a CM5 chip. Association of ROBO2 Ig1-Ig2-His (ROBO2) was measured over 5 minutes and dissociation was followed for a period of 10 minutes.

B1: Abcs35 (antibody, human IgG1, kappa)
heavy: EVQLVQSGAEVKKPGASVKVSCKASGYTFTGYYMHWVRQAPGQGLEWMGWINPKNGDTEFPQKFQGRVTMTRDTSITTAYMDLSRLRSDDTAVYYCARESGDDAFDIWGQGTMVTVSSASTKGPSVFPLAPSSKSTSGGTAALGCLVKDYFPEPVTVSWNSGALTSGVHTFPAVLQSSGLYSLSSVVTVPSSSLGTQTYICNVNHKPSNTKVDKKVEPKSCDKTHTCPPCPAPEAAGAPSVFLFPPKPKDTLMISRTPEVTCVVVDVSHEDPEVKFNWYVDGVEVHNAKTKPREEQYNSTYRVVSVLTVLHQDWLNGKEYKCKVSNKALPAPIEKTISKAKGQPREPQVYTLPPSREEMTKNQVSLTCLVKGFYPSDIAVEWESNGQPENNYKTTPPVLDSDGSFFLYSKLTVDKSRWQQGNVFSCSVMHEALHNHYTQKSLSLSPGK
light: DIVMTQSPSSLSASVGDRVTITCRASQSISSYLNWYQQKPGKAPKLLIYAASSLQSGVPSRFSGSGSGTDFTLTISSLQPEDFATYYCQQSVGLFFGGGTKVEIKRTVAAPSVFIFPPSDEQLKSGTASVVCLLNNFYPREAKVQWKVDNALQSGNSQESVTEQDSKDSTYSLSSTLTLSKADYEKHKVYACEVTHQGLSSPVTKSFNRGEC
notes: fully human IgG1; VH of Ab96 with VL of Ab123
For B1, the binding result [1] was “no binding”, the binding result (Human ROBO1 Ig1-Ig2) was “no binding” and the kon (Human ROBO2 Ig1-Ig2-His) was 2.96e+07 M⁻¹ s⁻¹.
